Measured values as given in publication doi:10.1101/2022.10.03.510455.

Biological target: FLAG tagged TSC2 (UniProt P49815)
Experiment: single molecule pulldown

Chain of UniProt P49815 (P49815 whole entry): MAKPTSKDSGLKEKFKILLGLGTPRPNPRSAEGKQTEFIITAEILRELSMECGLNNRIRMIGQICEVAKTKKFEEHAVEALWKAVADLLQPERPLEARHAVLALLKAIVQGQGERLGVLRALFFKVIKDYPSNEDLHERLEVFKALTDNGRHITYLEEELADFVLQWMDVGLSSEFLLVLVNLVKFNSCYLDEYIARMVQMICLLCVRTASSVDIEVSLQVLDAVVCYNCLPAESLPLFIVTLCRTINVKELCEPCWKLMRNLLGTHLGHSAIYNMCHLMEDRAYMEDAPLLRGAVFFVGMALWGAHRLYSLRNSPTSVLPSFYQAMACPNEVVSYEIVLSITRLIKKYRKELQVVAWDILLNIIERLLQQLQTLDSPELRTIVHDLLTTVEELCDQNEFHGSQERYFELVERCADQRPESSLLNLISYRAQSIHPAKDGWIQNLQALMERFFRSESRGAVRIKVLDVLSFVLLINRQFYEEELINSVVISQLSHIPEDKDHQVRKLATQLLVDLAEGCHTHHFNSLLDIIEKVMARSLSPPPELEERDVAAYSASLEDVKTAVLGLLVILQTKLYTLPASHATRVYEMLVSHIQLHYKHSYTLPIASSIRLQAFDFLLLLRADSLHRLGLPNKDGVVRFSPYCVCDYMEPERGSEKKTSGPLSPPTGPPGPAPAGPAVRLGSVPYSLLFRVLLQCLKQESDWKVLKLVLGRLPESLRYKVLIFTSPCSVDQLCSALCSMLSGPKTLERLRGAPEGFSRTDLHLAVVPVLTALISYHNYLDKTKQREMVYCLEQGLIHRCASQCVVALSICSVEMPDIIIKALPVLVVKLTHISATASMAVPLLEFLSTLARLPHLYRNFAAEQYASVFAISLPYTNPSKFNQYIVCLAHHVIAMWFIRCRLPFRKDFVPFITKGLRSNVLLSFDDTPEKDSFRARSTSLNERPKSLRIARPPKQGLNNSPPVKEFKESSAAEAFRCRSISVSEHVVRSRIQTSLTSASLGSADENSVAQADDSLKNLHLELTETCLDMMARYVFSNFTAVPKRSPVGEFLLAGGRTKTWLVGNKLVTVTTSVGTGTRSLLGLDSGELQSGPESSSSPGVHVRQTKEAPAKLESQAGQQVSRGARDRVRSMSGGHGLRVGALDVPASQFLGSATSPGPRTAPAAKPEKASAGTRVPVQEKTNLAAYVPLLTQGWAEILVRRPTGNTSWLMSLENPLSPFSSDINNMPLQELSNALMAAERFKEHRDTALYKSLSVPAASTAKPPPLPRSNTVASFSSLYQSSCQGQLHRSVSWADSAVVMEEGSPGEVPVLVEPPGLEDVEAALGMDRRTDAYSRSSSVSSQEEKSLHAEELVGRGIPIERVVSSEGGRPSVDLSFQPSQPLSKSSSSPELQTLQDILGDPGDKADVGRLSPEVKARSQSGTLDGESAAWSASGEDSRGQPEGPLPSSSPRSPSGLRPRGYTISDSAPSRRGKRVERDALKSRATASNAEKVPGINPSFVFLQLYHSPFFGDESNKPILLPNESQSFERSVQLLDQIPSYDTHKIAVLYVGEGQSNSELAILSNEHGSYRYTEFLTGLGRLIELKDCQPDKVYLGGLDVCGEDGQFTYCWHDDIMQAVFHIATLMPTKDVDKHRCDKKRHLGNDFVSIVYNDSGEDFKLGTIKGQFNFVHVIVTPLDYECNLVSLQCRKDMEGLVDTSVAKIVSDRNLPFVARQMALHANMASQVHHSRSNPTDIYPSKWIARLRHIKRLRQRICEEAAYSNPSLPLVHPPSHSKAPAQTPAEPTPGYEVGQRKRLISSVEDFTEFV

IC50: 500 pM
Substance: recombinant α-syn PFF (from UniProt P37840 1-140) (natural protein)
